Measurements from patent US12286661B2, “Methods for making high intensity sweeteners” (Firmenich Incorporated, priority 2018, dated 2025).

Test system: mogrol
Assay: Mogroside IA and/or IE production from mogrol by glycosyltransferases expressed in S. cerevisiae, LCMS
Format: cell-based
Settings: 10 μM mogrol, 2-4 days at 30° C.; identified by LCMS
Text: DNA was obtained through gene synthesis either through Genescript, IDT, or Genewiz. For some of the cucurbitadienol synthases, cDNA or genomic DNA was obtained through 10-60 day old seedlings followed by PCR amplification using specific and degenerate primers. DNA was cloned through standard molecular biology techniques or through yeast gap repair cloning (Joska et al., 2014) into one of the following overexpression vectors: pESC-Ura, pESC-His, or pESC-LEU. Gene expression was regulated by one of the following promoters; Gall, Gal10, Tef1, or GDS. Yeast transformation was performed using Zymo Yeast Transformation Kit II. Yeast strains were grown in standard media (YPD or SC) containing the appropriate selection with 2% glucose or 2% galactose for induction of heterologous genes. Yeast strains were grown in shake flask or 96 well plates at 30° ° C., 140-250 rpm. When indicated, lanosterol synthase inhibitor, Ro 48-8071 (Cayman Chemicals) was added (50 ug/ml). Yeast samples producing mogrol precursors, mogrol and mogrosides were processed through one of the following: • Cucurbitadienol and 11-OH Cucurbitadienol: Samples cell pellets were lysed (Yeast Buster) followed by ethyl acetate extraction, drying, and resuspension in methanol. • ·Mogrol and Mogrosides: Samples cell pellets were lysed in 50% ETOH, incubated at 80° C. for 30 min, filtered, dried and resuspended in MeOH for LCMS screening.
For analyzing Mogroside IIIE & Compound 1, the LCMS method included the use of Fluoro-phenyl 2.1×100 mm column, gradient 15 to 30% B for 6 minutes, at flow rate of 0.55 ml/min. For analyzing yeast production of mogroside I during enzyme screening, the LCMS method used a Phenomenex Kinetex Polar C18, 4.6×100 mm, 2.6 μm column, and a gradient of 25% to 55% B over 3 minutes, and 100% B at 3.5 minutes with a flow rate of 1.5 ml/min. Detection by ESI source negative mode single ion monitoring of 683.4 for mogroside I and 799.4 for mogroside II.
Various glycosyltransferase proteins were expressed in S. cerevisiae grown in the presence of 10 μM mogrol for 2-4 days at 30° C., 140-250 rpm in either shake flask or 96 well plates. Glycosyltransferases leading to production of Mogroside IA (glycosylation of C24-OH position) and/or Mogroside IE (glycosylation of C3-OH position) are provided in Table 6. DNA and protein sequences for the enzymes are provided in SEQ IDs 1050-1071 (see Table 1).

B1: SEQ ID NO. 1058/1059: glycosyltransferase (DNA/protein SEQ ID NO) producing mogroside I from mogrol (protein, listed as Barbarea vulgaris)
chain: MASETTHQFHSPLHFVLFPFMAQGHMIPMVDIARILAQRGVTITIVTTPHNAARFKNVLSRAIQSGLPINLVQAKFPSQESGSLEGHENLDLLDSLGASLTFFKATNMFEKPVEKLLKEIQPRPSCIIGDMCLPYTNRIAKNLGIPKIIFHGMCCFNLLCMHIMRQNYEFLETIDSEKEYFPIPNFPERAEFTKSQLPMITYAGEFKEFLDEVTEGDNTSYGVIVNTFEELEPAYVRDYKKVKAGKVWSIGPVSLCNKVGEDKAERGNKAAIDQDECIKWLDSKEEGSVLYVCLGSICNLPLSQLKELGLGLEESQRPFIWVIRGWEKYNELAEWISESGFKERIKERGLLIRGWSPQMLILSHPAVGGFLTHCGWNSTLEGITSGVPLLTWPLFGDQFCNEKLVVQVLKVGVRSGVEESMKWGQEENIGVLVDKEGVKKAVEEVMGESDDAKERRRRVKELGQLAHKAVEEGGSSHSNITSLLQDIRQLQSKK
With B1 the “Mogroside IA” value was 261900 and the “Mogroside IE” value was 104300.

B2: SEQ ID NO. 1068/1069: glycosyltransferase (DNA/protein SEQ ID NO) producing mogroside I from mogrol (protein, listed as Barbarea vulgaris)
chain: MVSEITHKSYPLHFVLFPFMAQGHMIPMVDIARLLAQRGVKITIVTTPHNAARFKNVLSRAIESGLPISIVQVKLPSQEAGLPEGNETLDSLVSMELMIHFLKAVNMLEEPVQKLFEEMSPQPSCIISDFCLPYTSKIAKKFNIPKILFHGMCCFCLLCMHILRKNREIVENLKSDKEHFVVPYFPDRVEFTRPQVPVATYVPGDWHEITEDMVEADKTSYGVIVNTYQELEPAYANDYKEARSGKAWTIGPVSLCNKVGADKAERGNKADIDQDECLKWLNSKEEGSVLYVCLGSICNLPLSQLKELGLGLEESQRPFIWVIRGWEKNKELHEWFSESGFEERIKDRGLLIKGWAPQMLILSHHSVGGFLTHCGWNSTLEGLTAGLPLLTWPLFADQFCNEKLAVQVLKAGVSAGVDQPMKWGEEEKIGVLVDKEGVKKAVEELMGESDDAKEIRRRAKELGELAHKAVEEGGSSHSNITSLLEDIMQLAQSNN
In the case of B2, the “Mogroside IA” value is reported as 1315000 and the “Mogroside IE” value is reported as “not detected”.

B3: SEQ ID NO. 1070/1071: glycosyltransferase (DNA/protein SEQ ID NO) producing mogroside I from mogrol (protein, listed as Barbarea vulgaris)
chain: MVSEITHKSYPLHFVLFPFMAQGHMIPMVDIARLLAQRGVKITIVTTPHNAARFENVLNRAIESGLPISIVQVKLPSQEAGLPEGNETFDSLVSMELLVPFFKSVNMLEEPVQKLFEEMSPQPSCIISDFCLPYTSKIAKKFNIPKILFHGMCCFCLLCMHVLRKNHEIVENLKSDKEHFVVPYFPDRVEFTRPQVPVATYVPGDWHEITGDMVEADKTSYGVIVNTCQELEPAYANDYKEARSGKAWTIGPVSLCNKVGADKAERGNKADIDQDECLKWLNSKEEGSVLYVCLGSICNLPLSQLKELGLGLEESQRPFIWVIRGWEKNKELLEWFSESGFEERIKDRGLLIKGWAPQMLILSHHSVGGFLTHCGWNSTLEGLTAGLPLLTWPLFADQFCNEKLAVQVLKAGVSAGVDQPMKWGEEEKIGVLVDKEGVKKAVEELMGESDDAKEIRRRAKELGELAHKAVEEGGSSHSNITSLLEDIMQLAQSNN
With B3 the “Mogroside IA” value was 1764000 and the “Mogroside IE” value was “not detected”.

B4: SEQ ID NO. 1064/1065: glycosyltransferase (DNA/protein SEQ ID NO) producing mogroside I from mogrol (protein, listed as Barbarea vulgaris)
chain: MASAKLHQFHPSLHFVLFPFMAQGHMIPMIDIARLLAQRGVTITIVTTLHNSARFRNVLSRAIESGLPINLVHVKFPYQEAGLPEGQENIDSLDSKELTVPFFKAVNMLEEPVMKLMEEMKPRPSCLISDLCLPYTSKIAKKFNIPKIVFHGMGCFCLLCMHVLRRNLEILQNLKSDKEYFWIPNFPDRVEFTKPQVPVRINASGDWKVFLDEMVKAEETSYGVIVNTFQELEPAYVKDFQEARAGKVWSIGPVSLCNKIEADKAERGNKAAIDQDECLKWLDSKEGGSVLYVCLGSICNLPLVQLIELGLGLEESQRPFIWVIRGWEKYNELSEWISESGFEERVKDRGLLIRGWAPQVLILSHPSVGGFLTHCGWNSTLEGITSGVPLLTLPLFGDQFCNQKLIVQVLKVGVSAGVEEVMGWGEEEKIGVLVDKERVKKTVEEVMGESDDAKERRRRVKELGKLAHKAVEEGGSSHSNITLFLQDMCQLQSVGIY
B4 was tested, and the “Mogroside IA” value was 76330 and the “Mogroside IE” value was 13290.

B5: SEQ ID NO. 1062/1063: glycosyltransferase (DNA/protein SEQ ID NO) producing mogroside I from mogrol (protein, listed as Barbarea vulgaris)
chain: MASITNHKSDPLHFVLFPFMAQGHMIPMVDIARLLAQRGLTITIVTTPHNASRFKNVLNRAIESGLPINILHVKLPYQEVGLPEGLENIDCFDSMEHMIPFFKGVNMVEESVQKLFEEMSPRPSCIISDFCLPYTSKVAKKFNIPKILFHGMCCLCLLCMHVLRKNPKILENLKSDKEHFVVPYFPDKIELTRPQVPMDTYVPGELKEFMEDLVEADKTSYGVIVNTFQELEPAYVKDYKETRSGKAWSVGPVALCNKARIDKAERGNKSDIDQDECLKWLDSKEERSVLYVCLGSICNLPLAQLKELGLGLEESTRPFIWVIRGWDKNKQLVEWFSESGFEERIKDRGLLIKGWSPQMLILSHQSVGGFLTHCGWNSTLEGITAGLPLLTWPLFADQFCNEKLVVQVLNSGVRAGVEQPMKWGEEEKIGVLVDKEGVKKAVEELMGESDEANERRRRAKELGELAHKAVEEGGSSHSNITFLLQDIMQLAQSNN
B5 was tested, and the “Mogroside IA” value was 1816000 and the “Mogroside IE” value was “not detected”.

B6: SEQ ID NO. 1066/1067: glycosyltransferase (DNA/protein SEQ ID NO) producing mogroside I from mogrol (protein, listed as Barbarea vulgaris)
chain: MASITNHKSDPLHFVLFPFMAQGHMIPMVDIARLLAQRGLTITIVTTPHNASRFKNVLNRAIESGLPINILHVKLPYQEVGLPEGLENIDCFDSMEHMIPFFKGVNMVEESVQKLFEEMSPRPSCIISDFCLPYTSKVAKKFNIPKILFHGMCCLCLLCMHVLRKNPKILENLKSDKEHFVVPYFPDKIELTRPQVPMDTYVPGELKEFMEDLVEADKTSYGVIVNTFQELEPAYVKDYKETRSGKAWSVGPVALCNKARIDKAERGNKSDIDQDECLKWLDSKEERSVLYVCLGSICNLPLAQLKELGLGLEESTRPFIWVIRGWDKNKQLVEWFSESGFEERIKDRGLLIKGWSPQMLILSHQSVGGFLTHCGWNSTLEGITAGLPLLTWPLFADQFCNEKLVVQVLNSGVRAGVEQPMKWGEEEKIGVLVDKEGVKKAVEELMGESDEANERRRRAKELGELAHKAVEEGGSSHSNITFLLQDIMQLAQPITEPSFLVQSWHYKKALLINLLQRTGHYQSK
In the case of B6, the “Mogroside IA” value is reported as 562100 and the “Mogroside IE” value is reported as “not detected”.

B7: SEQ ID NO. 1060/1061: glycosyltransferase (DNA/protein SEQ ID NO) producing mogroside I from mogrol (protein, listed as Barbarea vulgaris)
chain: MASESCHHSHCPLHFVLFPFMAQGHMIPMVDIARLLALRGATITIVTTPHNATRFNNLLSRAIESDLSINIVHVNFPYQEAGLSEGQENVDLLESMGLMVPFLKAVNMLEEPVMKLMEEMKPRPSCLISDFCLHYTSKITKKFNIPKIVFHGMGCFCLLCMHVLRRNIEILKNLKSDKEYFLVPSFPDIVEFTKPQVPVETNASGDWKEFLEAMVEAEDTSYGVIVNTFQELEPAYVKDYKEARAGKVWSIGPVSLCNKIEADKAERGNKAAIDQEECLKWLDSKEEGSVLYVCLGSICNLPLAQLKELGIGLEESQRPFIWVIRGWEKYNELSEWMLESGFEERVKDRGLLIKGWSPQMLVLSHPSVGGFLTHCGWNSTLEGITSGVPLLTWPLFADQFCNEKLVVQVLKVGVRAGVEDPMSWGEEEKVGVLLDKEGVKKAVEELMGESDDAKERRKRVKELGELAHKAVEEGGSSHSNITLFLQDISQYKSVGTF
In the case of B7, the “Mogroside IA” value is reported as 696200 and the “Mogroside IE” value is reported as “not detected”.
